Laboratory results reported in the DeepSol protein solubility set.

Assay: soluble on expression in E. coli; label from the status in PepcDB or PDB records

Q: For “MRELQADFVKPARIDILLDMPPASRDLQLKHSWNSEDRSLNIFVKEDDKLTFHRHPVAQSTDCIRGKVGLTKGLHIWEIYWPTRQRGTHAVVGVCTADAPLHSVGYQSLVGSTEQSWGWDLGRNKLYHDSKNCAGVTYPAILKNDEAFLVPDKFLVALDMDEGTLSFIVDQQYLGIAFRGLRGKKLYPIVSAVWGHCEITMRYIGGLDPEPLPLMDLCRRTIRQKI”, which “soluble on expression in E. coli” value is on record?
A: Its value is “soluble”.

Q: For “MGHHHHHHGSSSCAVSGASGCLPPARSRIFKIIVIGDSNVGKTCLTYRFCAGRFPDRTEATIGVDFRERAVDIDGERIKIQLWDTAGQERFRKSMVQHYYRNVHAVVFVYDMTNMASFHSLPAWIEECKQHLLANDIPRILVGNKCDLRSAIQVPTDLAQKFADTHSMPLFETSAKNPNDNDHVEAIFMTLAHKLKSH”, which “soluble on expression in E. coli” value is on record?
A: Its value is “soluble”.

Q: With “MKKRLNIGLVGLGCVGSAVAKILQENQEIIKDRAGVGIGIKKAVVRDVKKHKGYPFEISNDLESLIEDEEIDIVVELMGGVEAPYLLAKKTLAKQKAFVTANKAMLAYHRYELEQTAKNTPIGFEASVCGGIPIIKALKDGLSANHILSFKGILNGTSNYILSQMFKNQASFKDALKDAQHLGYAELNPEFDIKGIDAAHKLLILASLAYGIDAKLEEILIEGIEKIEPDDMEFAKEFGYSIKLLGIAKKHPDCIELRVHPSMIKNECMLSKVDGVMNAISVIGDKVGETLYYGAGAGGEPTASAVISDIIEIARKKSSLMLGFETPQKLPLKPKEEIQCAYYARLLVSDEKGVFSQISAILAQNDISLNNVLQKEILHSNKAKILFSTHTTNEKSMLNALKELENLQSVLDTPKMIRLEN” as the sequence, how does the “soluble on expression in E. coli” value read?
A: Its value is “not soluble”.

Q: For “MKYDTSELCDIYQEDVNVVEPLFSNFGGRSSFGGQIITVKCFEDNGLLYDLLEQNGRGRVLLVDGGGSVRRALVDAELARLATQNEWEGLVIYGAVRQVDDLEELDIGIQAIAAIPVGAAGEGIGESDVRVNFGGVTFFSGDHLYADNTGIILSEDPLDIE”, which “soluble on expression in E. coli” value is on record?
A: The value was “not soluble”.

Q: With “MSLKTFLVCALEPSANLHLKEVLKAYKKDFGEFELHGIYDESLCKEFDLNSKPLYSSHEFSAMGFIEVLPLIFKAKKAIKELANLSFTQKINGILCIDSPAFNIPFAKALKKAGSKIPRIYYILPQVWAWKKGRIPIIESHFDILASILPFDNQFFNKSTYIGHPLLDEIKEFKNQEDINHTFSKKDDEKTIAFLPGSRRSEIRRLMPIFKELSQKFKGKKILCVPSFNLEKLEVYGDISEFKIESNTPKVLKKADFAFICSGTATLEAALVGTPFVLAYKAKAIDIFIAKLFVKLKHIGLANIFCDFAGKEALNPEFLQDKVNVLNLYEAYNKYDYKAFFAKVDFLKEYLQFGSAKNLAKILNEIEGHHHHHH” as the sequence, how does the “soluble on expression in E. coli” value read?
A: The value was “soluble”.

Q: For “MGSDKIHHHHHHVERRIFGLENEYGVTCTFRGQRRLSPDEVARYLFRRVVSWGRSSNVFLRNGARLYLDVGSHPEYATPECDNLLDLVAHDKAGERILEGLQIDAEQRLREEGIAGDIYLFKNNTDSAGNSYGCHENYLVARHGEFGKLADVLIPFLVTRQIICGAGKVLQTPRGALYCVSQRAEHIWEGVSSATTRSRPIINTRDEPHADAERFRRLHVIVGDSNMSETTTLLKLASTDLVLRMIEANVPMRDFTLENPIRAIREISHDMTGRRKVRLANGREASALEIQREYLERVQSFVDRTGTDATGKRVLELWQRTLEAVESGNLDLVAREIDWVAKYKLLERYRAKHGLSLSSPRVAQLDLTYHDIHRDRGLFYLLQQRGQMERVVSDLRIFEAKSVPPQTTRARLRGEFIKKAQEKRRDFTVDWVHLKLNDQAQRTVLCKDPFKAVDERVEKLIAGM”, which “soluble on expression in E. coli” value is on record?
A: The value was “not soluble”.

Q: With “MKIGFLGFGKSNRSLLKYLLNHQEAKFFVSEAKTLDGETKKFLEEHSVEYEEGGHTEKLLDCDVVYVSPGIKPDTSMIELLSSRGVKLSTELQFFLDNVDPKKVVGITGTDGKSTATALMYHVLSGRGFKTFLGGNFGTPAVEALEGEYDYYVLEMSSFQLFWSERPYLSNFLVLNISEDHLDWHSSFKEYVDSKLKPAFLQTEGDLFVYNKHIERLRNLEGVRSRKIPFWTDENFATEKELIVRGKKYTLPGNYPYQMRENILAVSVLYMEMFNELESFLELLRDFKPLPHRMEYLGQIDGRHFYNDSKATSTHAVLGALSNFDKVVLIMCGIGKKENYSLFVEKASPKLKHLIMFGEISKELAPFVGKIPHSIVENMEEAFEKAMEVSEKGDVILLSPGGASFDMYENYAKRGEHFREIFKRHGGDEV” as the sequence, how does the “soluble on expression in E. coli” value read?
A: Its value is “soluble”.

Q: Which “soluble on expression in E. coli” value does the source give for “REEELNTEKVVAAIANPVENEVRKVWEDVVEKIEQRVAVIEQASHKLLQNKVSEEILSKAKVEAHKLAGSLGMFGSDEGSQIAQEIESLLDNGKKLKASGGKHLGQVVEALHQELENLKSG” here?
A: Its value is “soluble”.

Q: Which “soluble on expression in E. coli” value does the source give for “MNETTNEQEVLLLRRKLDLLLRTGKLLMESAADTNRIERNMKRVAAYLGIPEEKLHIDIRWTMLMVNVSDEKHSFSKFQKCEKHGINMEAISKISKLSWRAIEQDYSLDKYEEELEKIARQERNYTPYVVAICTGFACGGFCK” here?
A: Its value is “not soluble”.

Q: With “SDSFWEPGNYKRTTKRIEDGYKLCNDLQQLIQERADIEKGYAKSLRTWSKKWGELIEKGPEYGTTEAAWKGVLTESERISDVHMKIKDNLCNDVNSQIKTWQKENYHHTLMQIKERKDLEDLFKKAQKPWAKLLAKVEKAKADYHSACKTERSATNQERNANADSSLSPDQVKKMHDRVQKTKDQVQKCREKYEQAIAEITKYNSVYIEDMTSVFEKCQTFEKTRLQFFKEILFNVHSCLDLTKVQSLPQIYEEFSHTINNADQQKDLKWWSNNHGINMAMNWPSFVEYT” as the sequence, how does the “soluble on expression in E. coli” value read?
A: Its value is “soluble”.

Q: Which “soluble on expression in E. coli” value does the source give for “KFGELREISGNQYVNEVTNAEKDLWVVIHLYRSSVPMCLVVNQHLSVLARKFPETKFVKAIVNSCIEHYHDNCLPTIFVYKNGQIEGKFIGIIECGGINLKLEELEWKLSEVGAIQSDLEEN” here?
A: The value was “soluble”.

Q: For “MFSGHQLKTARLSKGITQSELGRLLHVNKMTISNWEKGKNIPNEKHLNALLHLFNVTSDYFDPNYRLLTPYNQLTISNKEKVIGYSERLLNHQIDKKSKDLIDKPSQLYAYRVYESLSAGTGYSYFGDGNFDVVFYDEQLEYDFASWVFGDSMEPTYLNGEVVLIKQNSFDYDGAIYAVEWDGQTYIKKVFREDEGLRLVSLNKKYSDKFAPYSEEPRIIGKIIANFRPLEI”, which “soluble on expression in E. coli” value is on record?
A: Its value is “not soluble”.

Q: With “MRFLDRFFKKKKKEEALWTKCPNCKSLLYVPDLESNLKVCPNCDYHFTLSALERIKYTLDEENPELLFEEILPADPLNFKDTKSYKDRIKKAQEETGLSEAIVITEGHIKGKRAILAVMDFNFIGGSMGSVVGERFFRACERAVETKTPLISFAASGGARMQEGILSLMQMAKTTFGVGLLKEANIPYISVLTNPTMGGVSASFAFLGDLILAEPKALIGFAGPRVIEQTIKQKLPEGFQTAEFLLEKGQIDMVVHRKELKDKLAYFLEVMYYAKRLEHHHHHH” as the sequence, how does the “soluble on expression in E. coli” value read?
A: Its value is “not soluble”.

Q: Which “soluble on expression in E. coli” value does the source give for “GGDVLERQMALMAQAAQRVQDMKRFVWDSLDSMPEPVVVTDLAGTVLIANHAAKRYCARLSAPAPEGRPLRVAFGELSFVKTVDGNAEQDVEIRSHWPAALDPTRDYENDVMERGIEVRDLSGLDHLLRYAPCTNAQGNVTGWIASLVDVTALHAAERQREEALHLLSHDM” here?
A: The value was “soluble”.

Q: For “MGTLSVNQNKLQKRLRRLAGEAVADFNMIEEGDKVMVCLSGGKDSYTLLDVLMHFQKVAPIRFDIVAVNMDQKQPGFPEHVLPAYLKELGVEYHIVEKDTHSVVKELIPEGKTTCSLCSRLRRGTLYTFADQIGATKMALGHHRDDIIETFFLNMFFNGALKAMPPKLRADDGRNVVIRPLAYCHEKDIQAYSDLKQFPIIPCNL”, which “soluble on expression in E. coli” value is on record?
A: Its value is “not soluble”.

Q: For “MRIIETIEEMKKFSEEMREKKKTIGFVPTMGYLHEGHLSLVRRARAENDVVVVSIFVNPTQFGPNEDYERYPRDFERDRKLLEKENVDCIFHPSVEEMYPPDFSTYVEETKLSKHLCGRSRPGHFRGVCTVVTKLFNIVKPHRAYFGQKDAQQFRVLRRMVRDLNMDVEMIECPIVREPDGLAMSSRNVYLSPEERQQALSLYQSLKIAENLYLNGERDAEKIKEEMIKHLSRFDKVKIDYVEIVDEETLEPVEKIDRKVIVAVAAWVGNARLIDNTILG”, which “soluble on expression in E. coli” value is on record?
A: Its value is “soluble”.

Q: For “MRYLDAEAIENIATGAAFLGTGGGGDPYIGKMMALSAIEENGPVKLVSPEEIAAEDFFLPAAMMGAPSVAIEKFPKGDEFVRVFEKLGKYLDQETIAGTFPMEAGCVNSMIPIVVAAKLGIPLVDCDGMGRAFPELPMVTFHLNGMSATPMAITDEKGNIGIMETIDNTWTERLARVQTVEMGASALVSIYPATGKQLQDYGIHNIVTLSEEIGKVIRGTYADEQEKRQALVEVTDGFELFQGKILDVEREVKGGFNLGRVKLSGLNSDAGSEAVVHFQNENLIAEKDGQVIAMTPDLICMVDLETLTPVTTESLKYGKRVQVMGLKANAAWRTKKGIETVGPRYFGYEMDYQPLENLVAKEDKLEHHHHHH”, which “soluble on expression in E. coli” value is on record?
A: The value was “soluble”.

Q: Which “soluble on expression in E. coli” value does the source give for “SLHEFGITQNIVAIVTEHAKGAKVQRVLLEIGKLSAIMPDAIRFCFDICTQGTVLEGATLEILEIPGLGRCRQCGGEIYLDKPFGICNCGSVQLDLITGEELKIKEIEIEELCV” here?
A: Its value is “soluble”.

Q: For “MGSDKIHHHHHHMSIVQAKFEAKETSFHVEGYEKIEYDLVYVDGIFEIQNSALADVYQGFGRCLAIVDANVSRLYGNQIQAYFQYYGIELRLFPITITEPDKTIQTFERVIDVFADFKLVRKEPVLVVGGGLITDVVGFACSTYRRSSNYIRIPTTLIGLIDASVAIKVAVNHRKLKNRLGAYHASRKVFLDFSLLRTLPTDQVRNGMAELVKIAVVAHQEVFELLEKYGEELLRTHFGNIDATPEIKEIAHRLTYKAIHKMLELEVPNLHELDLDRVIAYGHTWSPTLELAPRLPMFHGHAVNVDMAFSATIAARRGYITIAERDRILGLMSRVGLSLDHPMLDIDILWRGTESITLTRDGLLRAAMPKPIGDCVFVNDLTREELAAALADHKELCTSYPRGGEGVDVYPVYQKELIGSVK”, which “soluble on expression in E. coli” value is on record?
A: Its value is “not soluble”.

Q: With “MSLTEAPRVRLVGAEIFERPVEFRFPFRFGAARVTNAPQAFVRVRVEDASGRSTIGRSAEMMMPKWFDKNPSLSPEDNVGQLRASLRLAAEGLKSLQAETAFGLHVAAETEHHQAAATHGLPPLVASYGLALLDRAILDAVCRMMGACAAEAVRNNLLGVSGVAAPDLAGFDLTRFLSRLNVSSRLAVRHTIGLADVLTVADLGAMQRPADGLPQTLEDVIAAYGHRYFKIKVSGRPAEDIERLVAIAAILDDRVGDYRATLDGNEQFENIDLVCDLLDRIEEEPRLKRLRASMLFFEQPIARAEALSKPVVAAAQRMPLEIDESDGDMGAFLRARELGYAGISSKSCKGFYRALINRARVEKWNAEAGSSHYFMSAEDLTTQAGLALQQDLVLASLVGAGHVERNGHHYVDGMAGAPEGEQLAYLSHHGDLYEGAAGQTRLAIQAGEITFATALRSVGLGSSVDPDWAAMRPVSEGHHHHHH” as the sequence, how does the “soluble on expression in E. coli” value read?
A: Its value is “not soluble”.

Q: For “MLEVSVMTIRRDLHQEDEPLPLTLLGGYIVMVNKPAPSMPVIHDVPKNHRDDLPIAILAAGMVNENDLIFFDNGQEIPLVISMIPDAITFTGICYSHRVFVALNEKPNVTAILCGGTYRARSDAFYDASNSSPLDSLNPRKIFISASGVHNHFGVSWFNPEDLATKRKVMNRGLRKILLARHALFDEVASASLAPISAFDVLISDRPLPADYVTHCQNGSVKIITPDSEDELEHHHHHH”, which “soluble on expression in E. coli” value is on record?
A: The value was “not soluble”.
